± gives the standard deviation of the averaged measurements.
B1: library; a variant is named by its letters at N, in order (parent)
chain: GCUGUCACCGGUGCUUGGUACGUUAUAUUCAGCCGGUCUGAUGAGUCUNNNNNNAGACGAAACAGC

What was measured:
[1] = variants of: B1; experiment: FACS-Seq fitted mean relative fluorescence mCherry/BFP without ligand (log10 relative fluorescence); HEK293T overexpressing SLC46A1; higher = higher reporter protein expression; details: without (6R,S)-folinic acid; ligand present: no
Method in brief: (§1)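 An mCherry reporter containing the ribozyme switch and an EF1α-BFP marker were introduced by lentivirus into HEK293T libraries. Cells were enriched, incubated 48 h with or without ligand, sorted into 6 bins by mCherry/BFP, and bin genomic DNA was PCR-amplified, barcoded and sequenced on MiSeq. Fluorescence represents the normalized fitted normal mean of the bin counts. Fitting was done on log10(mCherry/BFP), scaling to five spiked-in control ribozymes.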

[2] = variants of: B1; experiment: normalized RNA/DNA level without ligand (relative to sTRSVctl = 100) (log10 (% of sTRSVctl)); HEK293T overexpressing SLC46A1; higher = less ribozyme self-cleavage, higher mRNA level; details: without (6R,S)-folinic acid; ligand present: no
Method: (§2)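 Hammerhead (sTRSV) ribozyme switch libraries with a ligand aptamer grafted on stem I and a randomized N4-6 loop II, cloned into the 3' UTR of mCherry and transiently transfected into HEK293T cells; RNA-Seq 72 h post transfection with ligand added 1 h before transfection; RNA read count / plasmid DNA read count normalized to the non-cleaving sTRSVctl (x100), log10; sequences with >100 DNA reads. FACS-Seq: lentiviral library sorted into 6 bins after 48 h ligand, log-normal fit mean of mCherry/BFP scaled to controls. Printed sequences are partial switch sequences.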

[3] = variants of: B1; experiment: FACS-Seq fitted mean relative fluorescence mCherry/BFP with ligand (log10 relative fluorescence); HEK293T overexpressing SLC46A1; ligand concentration (+) FACS-Seq: 6 mM; higher = higher reporter protein expression; details: with (6R,S)-folinic acid; ligand present: yes
Method in brief: as §1

[4] = variants of: B1; experiment: normalized RNA/DNA level with ligand (relative to sTRSVctl = 100) (log10 (% of sTRSVctl)); HEK293T overexpressing SLC46A1; ligand concentration (+) RNA-Seq: 6 mM; higher = less ribozyme self-cleavage, higher mRNA level; details: with (6R,S)-folinic acid; ligand present: yes
Method: as §2

| Variant | FACS-Seq fitted mean (log10) [1] | normalized RNA/DNA level without ligand (log10) [2] | FACS-Seq fitted mean (log10) [3] | normalized RNA/DNA level with ligand (log10) [4] |
| --- | --- | --- | --- | --- |
| CGAAUA | 0.314 ± 0.065 | 1.954 ± 0.0097 | 0.45 ± 0.14 | 1.978 ± 0.018 |
| ACUAAA | 0.538 ± 0.18 | 1.9903 ± 0.0016 | 0.483 ± 0.097 | 2.022 ± 0.018 |
| ACUAAG | 0.437 ± 0.1 | 1.924 ± 0.018 | 0.751 ± 0.14 | 2 ± 0.037 |
| ACUAAC | 0.18 ± 0.0049 | 2 ± 0.017 | 0.412 ± 0.046 | 2.01 ± 0.045 |
| UCGGCC | 0.562 ± 0.15 | 2.098 ± 0.0059 | 0.476 ± 0.036 | 2.043 ± 0.011 |
| UCGGCU | 0.288 ± 0.09 | 2.08 ± 0.024 | 0.415 ± 0.31 | 2.06 ± 0.053 |
| AGACCU | 0.618 ± 0.15 | 2.02 ± 0.041 | 0.641 ± 0.01 | 2.05 ± 0.027 |
| AGACCA | 0.1 ± 0.31 | 2.05 ± 0.0039 | 0.262 ± 0.072 | 2.03 ± 0.028 |
| CCUGAU | -0.195 ± 0.23 | 2.02 ± 0.024 | -0.196 ± 0.058 | 2.05 ± 0.028 |
| GGACAA | 0.352 ± 0.14 | 1.98 ± 0.0036 | 0.748 ± 0.25 | 1.99 ± 0.02 |
| GGACUA | 0.287 ± 0.07 | 1.989 ± 0.0053 | 0.202 ± 0.044 | 1.97 ± 0.033 |
| GGACGA | 0.242 ± 0.039 | 2.022 ± 0.011 | 0.493 ± 0.027 | 2.042 ± 0.011 |
| GGACGU | 0.583 ± 0.13 | 1.955 ± 0.015 | 0.529 ± 0.32 | 1.95 ± 0.024 |
| GCUAUA | 0.337 ± 0.086 | 1.985 ± 0.014 | 0.51 ± 0.19 | 2.019 ± 0.0034 |
| CCUUAU | 0.278 ± 0.013 | 2.023 ± 0.0064 | 0.394 ± 0.22 | 2.05 ± 0.022 |
| ACUUGG | 0.457 ± 0.11 | 1.898 ± 0.0091 | 0.649 ± 0.022 | 2 ± 0.049 |
| ACUCAA | 0.314 ± 0.088 | 1.973 ± 0.015 | 0.365 ± 0.012 | 2 ± 0.028 |
| ACUCAU | 0.258 ± 0.022 | 2.013 ± 0.0051 | 0.187 ± 0.11 | 2.04 ± 0.029 |

| Variant | FACS-Seq fitted mean (log10) [1] | normalized RNA/DNA level without ligand (log10) [2] | FACS-Seq fitted mean (log10) [3] | normalized RNA/DNA level with ligand (log10) [4] |
| --- | --- | --- | --- | --- |
| UGAAGA | 0.139 ± 0.053 | 1.877 ± 0.0079 | 0.513 ± 0.11 | 1.98 ± 0.027 |
| UGAAGG | 0.12 ± 0.034 | 1.645 ± 0.012 | 0.569 ± 0.24 | 1.96 ± 0.042 |
| UGAAGU | 0.167 ± 0.1 | 1.907 ± 0.015 | 0.347 ± 0.17 | 2.01 ± 0.036 |
| GCUUCA | 0.3988 ± 0.0025 | 2.04 ± 0.033 | 0.641 ± 0.1 | 2.06 ± 0.031 |
| AGACAG | 0.659 ± 0.017 | 1.941 ± 0.0083 | 0.854 ± 0.36 | 2.01 ± 0.026 |
| ACUGAA | 0.265 ± 0.035 | 1.953 ± 0.0034 | 0.375 ± 0.18 | 1.981 ± 0.0063 |
| ACUGAG | 0.198 ± 0.044 | 1.7978 ± 0.0006 | 0.446 ± 0.082 | 2 ± 0.023 |
| UCGGUG | -0.084 ± 0.14 | 1.817 ± 0.0011 | 0.096 ± 0.055 | 2 ± 0.03 |
| UCGGUU | 0.629 ± 0.068 | 2.033 ± 0.0021 | 0.695 ± 0.2 | 2.06 ± 0.023 |
| UCUUGG | 0.272 ± 0.099 | 1.904 ± 0.0099 | 0.131 ± 0.092 | 1.99 ± 0.022 |
| UCUUGC | 0.264 ± 0.036 | 2.018 ± 0.0075 | 0.449 ± 0.17 | 2.009 ± 0.016 |
| GCGAAU | 0.583 ± 0.062 | 2.014 ± 0.0084 | 0.3524 ± 0.00074 | 2.047 ± 0.016 |
| GCGAAG | 0.477 ± 0.0095 | 1.947 ± 0.0035 | 0.576 ± 0.049 | 2.05 ± 0.0089 |
| GCUGGU | 0.447 ± 0.19 | 1.969 ± 0.0056 | 0.172 ± 0.21 | 1.99 ± 0.032 |
| GCUGAA | -0.084 ± 0.057 | 2.021 ± 0.02 | -0.25 ± 0.14 | 2.03 ± 0.028 |
| GCUGAU | 0.277 ± 0.044 | 2.036 ± 0.0025 | 0.23 ± 0.0065 | 2.014 ± 0.019 |
| UCUUAG | 0.183 ± 0.18 | 1.86 ± 0.053 | -0.141 ± 0.14 | 2.02 ± 0.019 |
| ACGUUU | -0.149 ± 0.046 | 2.004 ± 0.015 | -0.00103 ± 0.41 | 2.025 ± 0.015 |

Reference: the supplement of paper PMC6757056
